Laboratory results as given in patent publication US20260209387A1, “SINGLE-DOMAIN ANTIBODY FOR INHIBITION OF NEUTROPHIL ELASTASE ACTIVITY” (UNIVERSITE DE LIEGE, priority 2023, published 2026).
Peptide text beside a SMILES is read from it. * marks the point of attachment. MeOSuc = COC(=O)CCC(=O)*; CH2Cl = ClC*

Assays:
hNE = biological target: T1, hNE (Homo sapiens, UniProt P08246); assay: hNE inhibition, hydrolysis of elastin (Elastin-CongoRed); format: biochemical
T1 construct: purchased Elastin Products Company (EPC)
T1 sequence (P08246 30-247): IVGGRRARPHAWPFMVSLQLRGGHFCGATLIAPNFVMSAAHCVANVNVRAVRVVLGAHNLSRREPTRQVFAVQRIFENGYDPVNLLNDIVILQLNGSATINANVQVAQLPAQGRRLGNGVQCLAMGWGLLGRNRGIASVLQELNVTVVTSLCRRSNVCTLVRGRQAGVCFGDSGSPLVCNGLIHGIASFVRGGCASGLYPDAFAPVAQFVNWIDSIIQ
Procedure: 1.6.2. Inhibition of the hydrolysis of elastin, a natural substrate of hNE. […] The samples were incubated for 16 hours at 37° C. with orbital shaking (900 rpm). The samples were then centrifuged at 90′000 g for 30 minutes at 4° C. to separate the insoluble Elastin from the digested and soluble molecule fragments. The soluble fraction was transferred into a 384-wells clear plate and the absorbance of Congo-red was measured at 495 nm in a SpectraMax M2e Microplates Reader (Molecular Devices, California, USA). The absorbance of the samples at different inhibitor: hNE molar ratios was compared to that measured in the absence of inhibitor, to determine the residual hNE activity. A sample of Elastin-Congo red without elastase was used as blank.

[1] = test system: hNE-induced alveolar-capillary damage; assay: hNE-induced acute lung injury mouse model; format: in vivo, mice; details: nasal instillation 15 min prior to hNE 25 μg; molar ratio Nb/HNE 4/1
Procedure: The in vivo efficacy of NbE201 was determined using a mouse model of acute lung injury induced by nasal instillation of HNE (L agente et al., 2009, American Thoracic Society International Conference Abstracts. (American Thoracic Society), A5668. doi: 10.1164/ajrccm-conference.2009.179.1_MeetingAbstracts.A5668). […]
It was determined with the hemoglobin assay kit (Sigma) and performed according to the manufacturer's instructions. […] A measurement of the optical density at 400 nm allowed the quantification of this stable complex. […]
Histological sections of the lung were digitized using a panoramic scan 2 (3[…]). […] This semi-automated analysis made it possible to quantify the damaged alveolar surface. […] The percentage of injured surface was determined by the ratio: % injured area=(injured area/alveolar area)×100

[2] = biological target: T2, human neutrophil elastase (human, UniProt P08246 30-247, glycans (NAG-NAG-FUC) at N109 and N204, chymotrypsinogen numbering, seen in the crystal); assay: capture of hNE on streptavidin magnetic beads via biotinylated NbE34 (phage panning)
T2 construct: Purified hNE bought from Elastin Products Company; In the crystal, density is defined for I1 to Q218; also called hNE; HNE
T2 sequence: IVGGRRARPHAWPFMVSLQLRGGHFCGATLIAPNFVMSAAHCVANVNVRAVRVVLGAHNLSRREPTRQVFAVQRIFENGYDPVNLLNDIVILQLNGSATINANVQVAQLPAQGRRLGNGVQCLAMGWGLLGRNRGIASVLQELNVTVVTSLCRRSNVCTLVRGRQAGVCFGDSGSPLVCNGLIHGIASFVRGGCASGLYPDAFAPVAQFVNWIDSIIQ
Procedure: The recovery of the beads after each step was carried out on a magnetic stand for 1.5 ml Eppendorf tubes for two minutes. All the incubation steps took place at room temperature and in a shaker with vertical rotation. Washing steps were carried out with 500 μl phosphate-buffered saline solution with a detergent solution of 0.01% (PBST, PBS with 0.01%, % v/v, Tween 20). First, 0.04 mg of beads were functionalized with 4 μg of chemically biotinylated NbE34 in 1 ml of PBS. After 5 washings, the beads were incubated with 5 μg of hNE in 500 μL of PBS. A negative control tube with magnetic beads functionalized with NbE34 but without hNE was also prepared. Then, the beads in each tube were incubated in 500 μl of blocking buffer. The blocking buffer was casein 0.1% (% w/v), bovine serum albumin 0.1% (% w/v) or protein free-blocking buffer (ThermoFisher Scientific, United States) in rounds 1, 2 and 3, respectively. In the next step, 2×10¹¹ phages from the library were incubated in the positive and the negative tubes and incubated for 1 hour. The beads were washed at least 10 times with PBST (PBS containing 0.05%, % v/v, Tween 20), previous to the elution of phages with 200 μl of triethanolamine (TEA) pH 11 for 10 minutes and neutralization with 200 μl of trisaminomethane hydrochloric acid (Tris-HCl) 1M pH8. […]

[3] = Physical stress (nebulization, agitation, freeze/thaw): concentration by A280 nm before/after centrifugation; format: physicochemical; details: for Initial concentration percentage after centrifugation: 10 000 g 10 min
Procedure: A 0.25 mg/ml solution of NbE201, NbE201-PEG10 or NbE201-PEG40 was prepared and divided in order to apply the following conditions: control, 1 or 4 h of agitation with a magnetic bar, nebulization, 5 or 10 freeze/thaw cycles.
2.3.1 Stability towards agitation. 100 μl of a 0.25 mg/ml ISVDs solution were agitated in a 1 ml glass vial with a 2×5 mm magnetic bar (VWR, Radnor, USA) at 200 rpm during 1 or 4 hours.
2.3.2 Stability towards Nebulization. 300 μl of a 0.25 mg/ml ISVDs solution were nebulized with a MeSH nebulizer (InnoSpire Go, Phillips, Amsterdam, The Netherlands).
2.3.3 Stability towards freezing/thawing. 100 μl of a 0.25 mg/ml ISVDs solution underwent 5 or 10 freeze/thaw (F/T) cycles. Freezing was performed in a −20° C. freezer and thawing was performed at RT.
2.3.4 Concentration measurements. Concentrations and UV spectra were measured by spectrophotometry (NanoDrop 2000/2000c spectrophotometer, ThermoFisher). Concentrations were determined based on the absorbance at 280 nm. NbE201 and NbE201-Cter mass extinction coefficients applied to the measurements were 1.888 and 1.716 (mg/mL)^−1 cm^−1 respectively. Regarding the ISVDs exposed to physical stresses, the concentration was read before and after centrifugation at 10 000 g at 4° C. for 10 min.

[4] = Aggregates detection by Nanoparticle Tracking Analysis; format: physicochemical; details: 0.25 mg/ml, after nebulization
Procedure: 2.3.5 Aggregates Detection. Protein aggregates were visualized by Nanoparticle Tracking Analysis (NTA) (ZetaView, 220 Twin Laser, Particle Metrix, Ammersee, Germany), a technique used for measuring single particle size and concentration. NbE201, NbE201-PEG10 and NbE201-PEG40 solutions (0.25 mg/ml) were analysed before and after nebulization. 11 positions were analysed for which following parameters were used: • Laser wavelength: 488 nm • Scatter, no fluorescence • Sensitivity: 80 • Shutter: 100

[5] = biological target: T3, proteolytic (elastase) activity of cystic fibrosis patient sputa (Homo sapiens, UniProt P08246); assay: Sputum proteolytic activity inhibition, cystic fibrosis sputa; format: biochemical; details: exposure time 0
T3 construct: Sputa from patients with cystic fibrosis, COPD or ciliary diskenisia above 18 years old were collected; from tissue; host or cells: expectorated sputum of patients with cystic fibrosis, COPD or ciliary dyskinesia
T3 sequence (P08246 30-267): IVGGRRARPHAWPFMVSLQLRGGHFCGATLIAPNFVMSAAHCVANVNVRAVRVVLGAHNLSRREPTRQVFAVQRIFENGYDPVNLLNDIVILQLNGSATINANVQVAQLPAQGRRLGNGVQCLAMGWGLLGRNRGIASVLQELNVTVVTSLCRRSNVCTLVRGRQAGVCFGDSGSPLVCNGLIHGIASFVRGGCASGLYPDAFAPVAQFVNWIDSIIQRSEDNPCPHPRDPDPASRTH
Procedure: 2.2.2 Evaluation of the proteolytic activity inhibition in CF, COPD and ciliary diskenisia sputa. […] Sputa collection procedures were evaluated by the local ethic committee (comité d'Ethique Hospitalo-Facultaire des Cliniques universitaires Saint-Luc) and approved under the Belgian registration number B4032021000071.
Sputum proteolytic activity was assessed by following with a spectrophotometer the absorbance at 410 nm of suc-Ala-Ala-Pro-Val-pNA degradation, the chromogenic hNE substrate. Sputa were classified as mucoid, muco-purulent or purulent (Serisier et al., 2009, Respir Res, 10 (1): 63. doi: 10.1186/1465-9921-10-6). According to the experiment, 10 to 20 mg of sputum were weighted in a 96-well plate. ISVDs were then added to the sputum samples and pre-incubated at 37° C. during different periods of time. The hNE substrate was diluted to a concentration of 1 mM in a tris buffer (0.1M tris, 0.5M NaCl, 0.01% Sodium azide (NaN3), pH 7.5) and 50 μl of this solution were added to the wells. The substrate degradation was followed during 50 min. […] Slopes were then calculated from the regression line drawn from the absorbance measurements and were expressed as a percentage of the sputum proteolytic activity without ISVDs.

Molecule: CC(C)(C)C(=O)Oc1ccc(S(=O)(=O)Nc2ccccc2C(=O)NCC(=O)O)cc1 [Sivelestat, reference compound]
- inhibition of hNE activity, elastin hydrolysis (hNE; [inhibitor]:[hNE] = 50): 40%

Molecule: AAT: endogenous glycoprotein, covalent natural inhibitor of neutrophil elastase
- protection against hNE-induced alveolar-capillary damage [1]: protects the lungs from developing alveolar-capillary damage

Molecule: COC(=O)CCC(=O)N[C@@H](C)C(=O)N[C@@H](C)C(=O)N1CCC[C@H]1C(=O)N[C@H](C(=O)CCl)C(C)C [EI3, methyl 4-[[(2S)-1-[[(2S)-1-[(2S)-2-[[(3S)-1-chloro-4-methyl-2-oxopentan-3-yl]carbamoyl]pyrrolidin-1-yl]-1-oxopropan-2-yl]amino]-1-oxopropan-2-yl]amino]-4-oxobutanoate, reference compound] (MeOSuc-AAPV-CH2Cl)
- inhibition of hNE activity, elastin hydrolysis (hNE; [inhibitor]:[hNE] ratio 15): 95%

B1: NbE34 (VHH)
VHH: QVQLQESGGGLVQPGGSLRLSCAASGFTLDYHAIGWFRQAPGKEREGVSCISSSGGRADYADSVKGRFTISRDNAKNTVYLQMNSLKPEDTAVYYCATRCAVVGGTYYYGMDYWGKGTQVTVSS
modifications: chemically biotinylated (sites not given)
notes: It was used to capture hNE on streptavidin beads for the panning; also called biotinylated capture ISVD NbE34
- binding result [2]: binds

B2: NbE201-PEG10: NbE201-Cter (linker SPSTPPTPSPSTPP + C-terminal cysteine) conjugated to linear 10 kDa PEG-maleimide (conjugate)
VHH: QVQLQESGGGLVQAGGSLRLSCVVPGRTISLYRMGWFRQAPGKEREFVAGINWSGDMTDYVDSVKGRFTISRDNAKNTVYLEMNSLKPEDTAIYYCTADPKLLPLADSSYGYWGQGTQVTVSSSPSTPPTPSPSTPPC
- Initial concentration percentage before centrifugation ([3]; Agitation (1 h)): 98 ± 1%
- Initial concentration percentage after centrifugation ([3]; Agitation (1 h)): 97 ± 2%
- Initial concentration percentage before centrifugation ([3]; Agitation (4 h)): 100 ± 1%
- Initial concentration percentage after centrifugation ([3]; Agitation (4 h)): 93 ± 2%
- Initial concentration percentage before centrifugation ([3]; Control): 100 ± 0%
- Initial concentration percentage after centrifugation ([3]; Control): 94 ± 2%
- Initial concentration percentage before centrifugation ([3]; F/T 5x): 99 ± 1%
- Initial concentration percentage after centrifugation ([3]; F/T 5x): 99 ± 1%
- Initial concentration percentage before centrifugation ([3]; F/T 10x): 98 ± 2%
- Initial concentration percentage after centrifugation ([3]; F/T 10x): 98 ± 1%
- Initial concentration percentage before centrifugation ([3]; Nebulization): 85 ± 2% (***)
- Initial concentration percentage after centrifugation ([3]; Nebulization): 85 ± 3%
- average counted particles per frame (NTA) [4]: far below that threshold
- sputum proteolytic activity inhibition at time 0, compared with NbE201 [5]: No significant difference
